Reference: article PMC5422739, “Leptospira Immunoglobulin-Like Protein B Interacts with the 20th Exon of Human Tropoelastin Contributing to Leptospiral Adhesion to Human Lung Cells” (Frontiers in Cellular and Infection Microbiology, 2017)

Experiments:
Conditions in all cases: both partners purified
[1] = target: T1, tag free LigB12 (amino acids 1,047–1,119 in LigB) (L. interrogans serovar Pomona); assay: SPR; Biacore 3000; tag free LigB12 immobilised on CM5 (about 1,000 RU); HTE truncates 0 to 5 μM injected in PBS at 30 μL/min, 25°C; 1:1 Langmuir model
T1 construct: LigB, 12th Ig-like domain, amino acids 1,047–1,119 in LigB; from pET28-SUMO; also called wild-type LigB12; LigB12 WT; source: E. coli Rosetta, purified (Ni-NTA, Ulp-1 digestion, second Ni-NTA, size exclusion)

[2] = target: T2, GST tagged LigB4 (amino acids 307–403 in LigB) (L. interrogans serovar Pomona); assay: ELISA; HTE17-20, HTE20, HTE20N, HTE20C or BSA coated (1 μM/well); GST tagged LigB4 or LigB12 titrated 0 to 10 μM, 1 h at 37°C; HRP anti-GST; KD from a saturation fit of OD630
T2 construct: Leptospira immunoglobulin-like protein B (LigB), 4th Ig-like domain, amino acids 307–403 in LigB; constructed into pGEX-6P-1 and pGEX-4T-2; also called GST-LigB4; 4th domain of LigB; source: E. coli Rosetta, purified (glutathione agarose)

[3] = target: T3, GST tagged LigB12 (amino acids 1,047–1,119 in LigB) (L. interrogans serovar Pomona); assay: as above
T3 construct: LigB, 12th Ig-like domain, amino acids 1,047–1,119 in LigB; constructed into pGEX-6P-1 and pGEX-4T-2; also called GST-LigB12; 12th domain of LigB; source: E. coli Rosetta, purified (glutathione agarose)

B1: HTE17-20 (17th to 20th exon of human tropoelastin) (domain or fragment)
chain: GVGTPAAAAAAAAAAKAAKYGAAAGLVPGGPGFGPGVVGVPGAGVPGVGVPGAGIPVVPGAGIPGAAVPGVVSPEAAAKAAAKAAKYGARPGVGVGGIPTYGVGAGGFPGFGVGVGGIPGVAGVPGVGGVPGVGGVPGVGIS
In the case of B1, the Kd [1] is reported as 850 nM, the koff [1] is reported as 0.0011 s⁻¹ and the kon [1] is reported as 1300 M⁻¹ s⁻¹. For the same binder, the Kd [2] was 780 nM and the Kd [3] was 780 nM.
